For twelve molecules, Kd and IC50 (cell based potency assay) results are on record in US20260193342A1 (ZOETIS SERVICES, published 2026).

Numbering of substitutions follows the chain as printed.

B1: mAb2 of Table 4A, caninized anti-NGF antibody ZTS-841, canine IgGB, N434I (antibody)
heavy: EVQLVESGGDLVKPGGSLRLSCVASGFTFSSHGMHWVRQSPGKGLQWVAVINSGGSSTYYTDAVKGRFTISRDNAKNTVYLQMNSLRAEDTAMYYCAKESVGGWEQLVGPHFDYWGQGTLVIVSSASTTAPSVFPLAPSCGSTSGSTVALACLVSGYFPEPVTVSWNSGSLTSGVHTFPSVLQSSGLYSLSSMVTVPSSRWPSETFTCNVAHPASKTKVDKPVPKRENGRVPRPPDCPKCPAPEMLGGPSVFIFPPKPKDTLLIARTPEVTCVVVDLDPEDPEVQISWFVDGKQMQTAKTQPREEQFNGTYRVVSVLPIGHQDWLKGKQFTCKVNNKALPSPIERTISKARGQAHQPSVYVLPPSREELSKNTVSLTCLIKDFFPPDIDVEWQSNGQQEPESKYRTTPPQLDEDGSYFLYSKLSVDKSRWQRGDTFICAVMHEALHIHYTQESLSHSPGK
VL: QSVLTQPTSVSGSLGQRVTISCSGSTNNIGILGASWYQLFPGKAPKLLVYGNGNRPSGVPDRFSGADSGDSVTLTITGLQAEDEADYYCQSFDTTLGAHVFGGGTHLTVL
notes: also called ID No. 50
B2: mAb2 of Table 4A, caninized anti-NGF antibody ZTS-841, canine IgGB, N434K (antibody)
heavy: B1 heavy with I447K
VL: B1 VL
notes: also called ID No. 51
B3: mAb1, caninized anti-IL31 antibody 34D03, canine IgGB, N434K (antibody)
heavy: EVQLVESGGDLVKPGGSLRLSCVASGFTFSNYGMSWVRQAPGKGLQWVATISYGGSYTYYPDNIKGRFTISRDNAKNTLYLQMNSLRAEDTAMYYCVRGYGYDTMDYWGQGTLVTVSSASTTAPSVFPLAPSCGSTSGSTVALACLVSGYFPEPVTVSWNSGSLTSGVHTFPSVLQSSGLYSLSSMVTVPSSRWPSETFTCNVAHPASKTKVDKPVPKRENGRVPRPPDCPKCPAPEMLGGPSVFIFPPKPKDTLLIARTPEVTCVVVDLDPEDPEVQISWFVDGKQMQTAKTQPREEQFNGTYRVVSVLPIGHQDWLKGKQFTCKVNNKALPSPIERTISKARGQAHQPSVYVLPPSREELSKNTVSLTCLIKDFFPPDIDVEWQSNGQQEPESKYRTTPPQLDEDGSYFLYSKLSVDKSRWQRGDTFICAVMHEALHKHYTQESLSHSPGK
light: EIVMTQSPASLSLSQEEKVTITCKASQSVSFAGTGLMHWYQQKPGQAPKLLIYRASNLEAGVPSRFSGSGSGTDFSFTISSLEPEDVAVYYCQQSREYPWTFGQGTKLEIKRNDAQPAVYLFQPSPDQLHTGSASVVCLLNSFYPKDINVKWKVDGVIQDTGIQESVTEQDKDSTYSLSSTLTMSSTEYLSHELYSCEITHKSLPSTLIKSFQRSEC
notes: VH/VL: the caninized 34D03 entries of the listing; also called ID No. 13; copies: 2 + 2
B4: mAb1, caninized anti-IL31 antibody 34D03, canine IgGB, N434L (antibody)
heavy: B3 heavy with K440L
light: B3 light
notes: VH/VL: the caninized 34D03 entries of the listing; also called ID No. 14; copies: 2 + 2
B5: mAb2 of Tables 1-3, caninized anti-NGF antibody, canine IgGB (65), WT (antibody, part only; not given: Anti-NGF heavy and light variable domains, part only)
heavy, part: ASTTAPSVFPLAPSCGSTSGSTVALACLVSGYFPEPVTVSWNSGSLTSGVHTFPSVLQSSGLYSLSSMVTVPSSRWPSETFTCNVAHPASKTKVDKPVPKRENGRVPRPPDCPKCPAPEMLGGPSVFIFPPKPKDTLLIARTPEVTCVVVDLDPEDPEVQISWFVDGKQMQTAKTQPREEQFNGTYRVVSVLPIGHQDWLKGKQFTCKVNNKALPSPIERTISKARGQAHQPSVYVLPPSREELSKNTVSLTCLIKDFFPPDIDVEWQSNGQQEPESKYRTTPPQLDEDGSYFLYSKLSVDKSRWQRGDTFICAVMHEALHNHYTQESLSHSPGK
B6: mAb1, caninized anti-IL31 antibody 34D03, canine IgGB, N434M (antibody)
heavy: B3 heavy with K440M
light: B3 light
notes: VH/VL: the caninized 34D03 entries of the listing; also called ID No. 15; copies: 2 + 2
B7: mAb1, caninized anti-IL31 antibody 34D03, canine IgGB, N434Q (antibody)
heavy: B3 heavy with K440Q
light: B3 light
notes: VH/VL: the caninized 34D03 entries of the listing; also called ID No. 16; copies: 2 + 2
B8: mAb1, caninized anti-IL31 antibody 34D03, canine IgGB, N434W (antibody)
heavy: B3 heavy with K440W
light: B3 light
notes: VH/VL: the caninized 34D03 entries of the listing; also called ID No. 21; copies: 2 + 2
B9: mAb1, caninized anti-IL31 antibody 34D03, canine IgGB, N434V (antibody)
heavy: B3 heavy with K440V
light: B3 light
notes: VH/VL: the caninized 34D03 entries of the listing; also called ID No. 20; copies: 2 + 2
B10: mAb1, caninized anti-IL31 antibody 34D03, canine IgGB, N434T (antibody)
heavy: B3 heavy with K440T
light: B3 light
notes: VH/VL: the caninized 34D03 entries of the listing; also called ID No. 19; copies: 2 + 2
B11: mAb1, caninized anti-IL31 antibody 34D03, canine IgGB, N434S (antibody)
heavy: B3 heavy with K440S
light: B3 light
notes: VH/VL: the caninized 34D03 entries of the listing; also called ID No. 18; copies: 2 + 2
B12: mAb1, caninized anti-IL31 antibody 34D03, canine IgGB, N434R (antibody)
heavy: B3 heavy with K440R
light: B3 light
notes: VH/VL: the caninized 34D03 entries of the listing; also called ID No. 17; copies: 2 + 2

For the first assay, the target named is T1, canine FcRn complex (FcRn-α subunit and β-microglobulin) (canine, UniProt A0A8I3PFR8 25-347, biotin on the BAP tag by BirA (Example 5 only)). Briefly: SPR (Biacore), biotinylated FcRn on SA chip, IgG flowed, pH 6, 15 C. (In SPR one partner is held on a chip, and binding of the other changes the refractive index at the surface.)
T1 sequence (A0A8I3PFR8 entry or part of it, one chain of several): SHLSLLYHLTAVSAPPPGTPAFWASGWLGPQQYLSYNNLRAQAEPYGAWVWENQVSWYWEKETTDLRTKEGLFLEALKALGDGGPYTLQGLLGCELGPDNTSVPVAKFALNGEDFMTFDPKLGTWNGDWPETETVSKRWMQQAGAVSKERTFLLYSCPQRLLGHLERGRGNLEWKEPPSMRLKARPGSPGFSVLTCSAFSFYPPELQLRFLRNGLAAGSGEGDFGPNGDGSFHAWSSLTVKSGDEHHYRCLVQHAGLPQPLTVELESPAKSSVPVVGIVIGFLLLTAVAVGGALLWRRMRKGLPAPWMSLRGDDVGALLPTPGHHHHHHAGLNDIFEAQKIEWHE
The term Kd denotes a measure of binding affinity in units of concentration. Molecule B1 returned a Kd of 2.76 nM. This counts as single-digit nanomolar.
On the same count and under the same terms, as for B2, the figure is 1.93 nM; as for B3, 9.11 nM; as for B4, 14.3 nM.

Another assay addresses NGF (target protein of mAb2). The experiment in a line: SPR (Biacore T200), target amine-coupled to CM5, antibody flowed, 15 C, 1:1 model.
With B5, the Kd is 0.0851 nM.

For another assay, the target named is T1, canine FcRn complex (FcRn-α subunit and …). Briefly: SPR (Biacore), biotinylated FcRn on SA chip, IgG flowed, pH 7.4, 15 C.
Consider B1, for which the affinity, expressed as Kd, was 22800 nM. This counts as double-digit micromolar.
B2 gave a Kd of 594 nM.
Same read-out and setting: as for B3, the figure is 7.86 nM.
The same measure, in the same setting: the result for B4 reads 997 nM.

Another assay has as its target canine FcRn complex (FcRn-α subunit and β-microglobulin) (canine). The experiment in a line: SPR (Biacore), FcRn amine-coupled to CM5, IgG flowed, pH 6, 15 C.
As for B5, the dissociation constant Kd was determined as 57.2 nM. That is a double-digit nanomolar value.

A further assay concerns the target T1, canine FcRn complex (FcRn-α subunit and …). The experiment in a line: SPR (Biacore), biotinylated FcRn on SA chip, IgG flowed, pH 7.4, 15 C. The source holds these as a separate data set.
Molecule B6 had a Kd of 146000 nM.
Still for that read-out and setting: as for B7, the figure is 21.8 nM; as for B8, 25300 nM.
Consider B9, for which the Kd stood at 2750 nM.
Same read-out and setting: as for B10, the figure is 554 nM; as for B11, 6960 nM; as for B12, 3.11 nM.

The target is the same in the next assay. The experiment in a line: SPR (Biacore), biotinylated FcRn on SA chip, IgG flowed, pH 6, 15 C. The source holds these as a separate data set.
As for B6, the dissociation constant Kd is 14.2 nM.
Still for that read-out and setting: the result for B7 reads 5.91 nM.
On the same count and under the same terms, the result for B8 reads 1.98 nM; that for B9, 6.16 nM; that for B10, 34.2 nM.
B11 had a Kd of 20.2 nM. This Kd is about 1.7-fold lower than that of the molecule before.
On the same count and under the same terms, as for B12, the figure is 0.906 nM.

Another assay addresses NGF (target protein of mAb2). The experiment in a line: cell-based or functional assay.
Molecule B5 returned an IC50 (cell based potency assay) of 23.7 nM.
